Test results taken from paper PMC2441799 (Nucleic Acids Research, 2008).

Target: full-length JDP2 protein fused to the yeast GAL4 DNA-binding domain (GAL4-DBD-JDP2) (rat, UniProt Q78E65 1-163)
Assay: two-hybrid

Chain of full-length JDP2 protein fused to the yeast GAL4 DNA-binding domain (GAL4-DBD-JDP2) (Q78E65 whole entry, the tested form may be a part): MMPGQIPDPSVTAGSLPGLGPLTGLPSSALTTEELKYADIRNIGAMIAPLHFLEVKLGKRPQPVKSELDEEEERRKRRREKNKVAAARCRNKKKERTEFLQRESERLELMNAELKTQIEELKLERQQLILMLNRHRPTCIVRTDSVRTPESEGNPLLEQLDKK

B1: wild-type CHOP10 (expression plasmid, in NIH3T3 cells) (natural protein)
chain: MAAESLPFSFGTLSSWELEAWYEDLQEVLSSDENGGTYVSPPGNEEEESKIFTTLDPASLAWLTEEEPEPAEVTSTSQSPHSPDSSQSSLAQEEEEEDQGRTRKRKQSGHSPARAGKQRMKEKEQENERKVAQLAEENERLKQEIERLTREVEATRRALIDRMVNLHQA
fold potentiation of the 5 × UAS luciferase reporter (two-hybrid): 25 fold
